In US9255257B2, “PmST1 mutants for chemoenzymatic synthesis of sialyl lewis X compounds” (THE REGENTS OF THE UNIVERSITY OF CALIFORNIA, priority 2011, dated 2016):
“Also recorded” adds a separate entry of the source.

What was measured:
Type in all cases: biochemical
[1] = Apparent kinetics of the α2-3-sialidase activity (HPLC, fluorescent sialoside substrate); conditions: substrate Neu5Acα2-3LacβMU
Experimental: All the sialidase and α2-3-sialyltransferase assays were performed in an HPLC system. Reactions were stopped by adding 10 μL of ethanol. […] The mobile phase was 25% acetonitrile.
Kinetics of the α2-3-sialidase activity of PmST1 mutants.

[2] = Kinetics of the donor (CMP-Neu5Ac) hydrolysis activity by capillary electrophoresis
Experimental: The reactions were stopped by adding 10 μL of pre-chilled ethanol. The mixtures were incubated on ice for 30 min and centrifuged at 13,000 rpm for 5 min. The supernatants were diluted with borate buffer (25 mM, pH 9.5) and aliquotes of 5 μL each were injected to a Beckman Coulter P/ACE™ MDQ Capillary Electrophoresis system equipped with a capillary (60 cm×75 μm i.d.) and monitored at 254 nm. The apparent kinetic parameters were obtained by fitting the experimental data (the average values of duplicate assay results) into the Michaelis-Menten equation using Grafit 5.0.

[3] = α2-3-sialidase activity assay with sialyl Le^x substrate (HPLC); conditions: for Neu5Ac cleaved from Neu5Acα2-3Le^xβMU: substrate 1 mM, enzyme 4 mg mL^−1, MES pH 5.5, 37° C.
Experimental: The α2-3-sialidase activity assays of PmST1 and mutants. The reactions were carried out in duplicate in a total volume of 10 μL at 37° C. for 20 hr in MES buffer (100 mM, pH 5.5) containing Neu5Acα2-3Le^xβMU (1 mM) and an enzyme (4 mg mL^−1). Aliquots of 1 μL were withdrawn at 1 hr, 6 hr and 20 hr, and analyzed by HPLC as described above for the α2-3-sialyltransferase assays.

[4] = Apparent kinetics of the α2-3-sialyltransferase activity, LacβMU acceptor and CMP-Neu5Ac donor (HPLC); conditions: acceptor LacβMU
Experimental: To obtain the apparent kinetic parameters of LacβMU as the acceptor for the α2-3-sialyltransferase activity, the kinetic assays were performed in duplicate in reaction mixtures of 10 μL containing Tris-HCl buffer (100 mM, pH 8.5), a fixed concentration of CMP-Neu5Ac (1 mM), different concentrations of LacβMU (0.2, 0.5, 1.0, 2.0, 5.0, and 9.0 mM) and the mutant proteins (2 μg mL^−1 of E271F, 2 μg mL^−1 of R313Y, and 1.6 μg mL^−1 of E271F/R313Y). All reactions were allowed to proceed at 37° C. for 5 min (E271F), 7 min (R313Y), and 10 min (E271F/R313Y). The apparent kinetic parameters were obtained by fitting the experimental data (the average values of duplicate assay results) into the Michaelis-Menten equation using Grafit 5.0.
To obtain the apparent kinetic parameters of CMP-Neu5Ac as the donor for the α2-3-sialyltransferase activity, the kinetic assays were performed in duplicate in reaction mixtures of 10 μL containing Tris-HCl buffer (100 mM, pH 8.5), a fixed concentration of LacβMU (1 mM), different concentrations of CMP-Neu5Ac (0.1, 0.2, 0.5, 1.0, 2.0, 5.0, 10.0 and 20.0 mM) and the mutant proteins (2 μg mL^−1 of E271F, 2 μg mL^−1 of R313Y, and 1.6 μg mL^−1 of E271F/R313Y). All reactions were allowed to proceed at 37° C. for 2 min (E271F), 7 min (R313Y), and 5 min (E271F/R313Y). The apparent kinetic parameters were obtained by fitting the experimental data (the average values of duplicate assay results) into the Michaelis-Menten equation using Grafit 5.0.
All the sialidase and α2-3-sialyltransferase assays were performed in an HPLC system. Reactions were stopped by adding 10 μL of ethanol. After necessary dilutions were performed to adjust the concentrations of the fluorescent-labeled compounds, the samples were then kept on ice until aliquots of 8 μL were injected and analyzed by a Shimadzu LC-6AD system equipped with a membrane on-line degasser, a temperature control unit, and a fluorescence detector (Shimadzu RF-10AXL). A reverse-phase Premier C18 column (250×4.6 mm i.d., 5 μm particle size, Shimadzu) protected with a C18 guard column cartridge was used. The mobile phase was 25% acetonitrile. The fluorescent compounds LacβMU and Neu5Acα2-3LacβMU were detected by excitation at 325 nm and emission at 372 nm.
Kinetics of the α2-3-sialyltransferase activity of PmST1 mutants by HPLC analysis. […] The supernatants were diluted with 25% acetonitrile and kept on ice until aliquots of 8 μL were injected and analyzed by the Shimadzu LC-6AD system equipped with a membrane on-line degasser, a temperature control unit, and a fluorescence detector (Shimadzu RF-10AXL). […] The fluorophore (MU)-labeled compounds were detected by excitation at 325 nm and emission at 372 nm. […]

[5] = Apparent kinetics of the α2-3-sialyltransferase activity, Le^xβMU acceptor and CMP-Neu5Ac donor (HPLC); conditions: acceptor Le^xβMU

| Molecule | decrease of α2-3-sialidase activity (catalytic efficiency kcat/Km) compared to wild-type PmST1 [1] | decrease of efficiency of CMP-Neu5Ac (donor) hydrolysis activity compared to WT [2] | decrease of kcat value, donor hydrolysis, compared to WT [2] | increase of Km value, donor hydrolysis, compared to WT [2] | sialidase activity with Neu5Acα2-3Le^xβMU as substrate (in words) [3] | decrease of kcat value, α2-3-sialyltransferase activity, compared to WT [4] | decrease of α2-3-sialyltransferase activity compared to WT [4] | increase of Km value, α2-3-sialyltransferase activity, compared to WT [4] | change of efficiency of α2-3-sialyltransferase activity compared to WT (in words) [5] | increase of kcat value, donor hydrolysis, compared to WT [2] | Neu5Ac cleaved from Neu5Acα2-3Le^xβMU ([3]; 1 h) | Neu5Ac cleaved from Neu5Acα2-3Le^xβMU ([3]; 6 h) | Neu5Ac cleaved from Neu5Acα2-3Le^xβMU ([3]; 20 h) | increase of efficiency of α2-3-sialyltransferase activity compared to WT [5] |
| --- | --- | --- | --- | --- | --- | --- | --- | --- | --- | --- | --- | --- | --- | --- |
| M144D (protein, listed as Pasteurella multocida, PmST1 wild-type glycosyltransferase family 80 (GT80), GT80 sialyltransferase, Pm0188Ph) MKNRRLNFKLFFLIIFSLFSTLSWSKTITLYLDPASLPALNQLMDFTQNNEDKTHPRIFGLSRFKIPDNIITQYQNIHFVELKDNRPTEALFTILDQYPGNIELNIHLNIAHSVQLIRPILAYRFKHLDRVSIQQLNLYDDGSDEYVDLEKEENKDISAEIKQAEKQLSHYLLTGKIKFDNPTIARYVWQSAFPVKYHFLSTDYFEKAEFLQPLKEYLAENYQKMDWTAYQQLTPEQQAFYLTLVGFNDEVKQSLEVQQAKFIFTGTTTWEGNTDVREYYAQQQLNLLNHFTQAEGDLFIGDHYKIYFKGHPRGGEINDYILNNAKNITNIPANISFEVLMMTGLLPDKVGGVASSLYFSLPKEKISHIIFTSNKQVKSKEDALNNPYVKVMRRLGIIDESQVIFWDSLKQL | 5588 fold | 20 fold | 4.2 fold | 4.9 fold | no sialidase activity | 2 fold | 18 fold | 9 fold | did not change the efficiency of the α2-3-sialyltransferase activity of PmST1 significantly; also recorded: without appreciably changing the efficiency of the α2-3-sialyltransferase activity |  |  |  |  |  |
| M144H (protein) MKNRRLNFKLFFLIIFSLFSTLSWSKTITLYLDPASLPALNQLMDFTQNNEDKTHPRIFGLSRFKIPDNIITQYQNIHFVELKDNRPTEALFTILDQYPGNIELNIHLNIAHSVQLIRPILAYRFKHLDRVSIQQLNLYDDGSHEYVDLEKEENKDISAEIKQAEKQLSHYLLTGKIKFDNPTIARYVWQSAFPVKYHFLSTDYFEKAEFLQPLKEYLAENYQKMDWTAYQQLTPEQQAFYLTLVGFNDEVKQSLEVQQAKFIFTGTTTWEGNTDVREYYAQQQLNLLNHFTQAEGDLFIGDHYKIYFKGHPRGGEINDYILNNAKNITNIPANISFEVLMMTGLLPDKVGGVASSLYFSLPKEKISHIIFTSNKQVKSKEDALNNPYVKVMRRLGIIDESQVIFWDSLKQL | 594 fold | 3.3 fold |  | 8.7 fold | increased sialidase activity compared to the WT PmST1 |  | 1.3 fold |  |  | 2.6 fold | 10.0% | 24.5% | 34.0% | 2.6 fold |
